This series deals with reconstituted human albumin (Homo sapiens, UniProt P02768). As to the kind of experiment: Release of CPT in reconstituted human albumin (PBS solution). It is filed as in vitro ADME. The conditions noted are these: compared with PBS.
Sequence of reconstituted human albumin (P02768 25-609): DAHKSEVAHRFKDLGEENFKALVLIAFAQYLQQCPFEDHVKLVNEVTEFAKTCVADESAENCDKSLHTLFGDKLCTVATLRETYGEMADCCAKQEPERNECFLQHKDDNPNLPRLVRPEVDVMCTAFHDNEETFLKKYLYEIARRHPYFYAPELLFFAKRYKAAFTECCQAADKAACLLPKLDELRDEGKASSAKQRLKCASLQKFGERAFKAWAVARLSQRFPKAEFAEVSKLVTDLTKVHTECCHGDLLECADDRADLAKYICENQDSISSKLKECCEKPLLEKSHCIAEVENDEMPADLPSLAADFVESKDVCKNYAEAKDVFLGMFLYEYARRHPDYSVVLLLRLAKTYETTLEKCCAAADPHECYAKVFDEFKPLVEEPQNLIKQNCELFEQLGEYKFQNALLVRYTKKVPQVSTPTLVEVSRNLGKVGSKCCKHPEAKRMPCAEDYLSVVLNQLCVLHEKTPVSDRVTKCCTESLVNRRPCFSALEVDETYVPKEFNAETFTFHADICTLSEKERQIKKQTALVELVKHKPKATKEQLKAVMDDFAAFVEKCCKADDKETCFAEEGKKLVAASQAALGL

Description: This solution was added to a lyophilized powder of human plasma to reconstitute 100% human plasma by the recommended amount. The solution was divided into equal volume (250 μL) to 1.5 mL Eppendorf tubes, incubated at 37° C., and stopped at selected time point. Samples were stored at −80° C. until the analysis. Samples were separated from plasma by solid phase extraction columns. The solid phase extraction cartridge (Oasis HLB 1 cc cartridge from Waters) was pre-conditioned with 1 mL of acetonitrile and then with 1 mL of 8.5% H3PO4 before loading. Samples were acidified with equal volume of 8.5% H3PO4 prior to loading. After the acidified solution was loaded on the cartridge, the bed was washed with 3×1 mL of water. Released CPT and polymer conjugate were eluted with 3×1 mL of a solution mixture of acetonitrile and potassium phosphate buffer (pH 4.1) (60/40 v/v). The eluted solution was diluted to 5 mL total volume in a 5 mL volumetric flask. 30 μL of such solution was injected into the HPLC. The peak area from the CPT lactone form was integrated and compared to a standard curve.

Take Poly(CDDCys-PA-PEG)-Gly-CPT [HG6]: the “CPT release rate in the presence of albumin” value is “on the same order of magnitude as in PBS”.

For the substance “Poly(CDDCys-PA-PEG)-GlyGlyGly-CPT [HGGG6]”, the “CPT release rate in the presence of albumin” value was “on the same order of magnitude as in PBS”.

Values taken from patent publication US20180193486A1, “COMPOSITIONS AND METHODS FOR TREATMENT OF AUTOIMMUNE AND OTHER DISEASE” (priority 2010, published 2018).
